Experimental data as given in patent publication US20240409635A1 (VIBRANT PHARMA, published 2024).

What was measured:
[1] = target: epidermal growth factor receptor (EGFR) on human tumor cells (human, UniProt P00533 25-1210); assay: cell-based or functional assay
[2] = target: T1, recombinant human CD3ε/δ protein (ACRO systems, CDD-H52W1) (human, UniProt P07766 23-126; P04234 22-105); assay: BLI, antibody captured on AHC sensor
T1 construct: Bought reagent
Protocol: (§1) Antibodies were first captured onto an anti-human IgG Fc coated AHC biosensor (Anti-hIgG Fc, Sartorius, 18-5060). Antibodies were diluted to 5 μg/mL and 1.5 nm protein was coupled to the AHC sensor surface in 0.02% PBST.
(§2) After the sensor captures the antibodies, it is used to bind and dissociate with different concentrations of analytes to obtain the KD value of the interaction. The experimental parameters are as follows: Baseline1: 60 s, Loading: 240 s, Baseline2: 180 s, Association: 240 s, Dissociation: 600 s, High sensitivity kinetics: 2 Hz. Kinetic constants were derived based on the rate equation for 1:1 Langmuir binding to obtain equilibrium dissociation constants (KD). The Data Analysis HT 12 software (Sartorius, 50-5029) was used to simultaneously fit binding and dissociation curves to calculate Kₒₙ, and Koff. The affinity KD was calculated based on the below formula: KD=Koff/Kₒₙ.

[3] = target: T2, recombinant human EGFR protein (ACRO systems, EGR-H5222) (human, UniProt P00533 25-645); assay: BLI, antibody captured on AHC sensor
T2 construct: Bought reagent
Protocol: as §1, §2

[4] = target: T3, recombinant human EGFR protein (human, UniProt P00533 25-645); assay: BLI, antibody on AHC sensor
T3 construct: Bought
Protocol: as §1
as §2, with “Kₒₙ” for “Kₒₙ,”

[5] = target: T4, recombinant human CD3ε/δ protein (human, UniProt P07766 23-126; P04234 22-105); assay: BLI, antibody on AHC sensor
T4 construct: Bought heterodimer
T4 sequence (P07766 23-126, stated change not applied, chain 1 of 2): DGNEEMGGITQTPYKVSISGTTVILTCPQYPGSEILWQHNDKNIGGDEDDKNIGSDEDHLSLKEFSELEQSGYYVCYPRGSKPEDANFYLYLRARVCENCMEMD
T4 sequence (P04234 22-105, stated change not applied, chain 2 of 2): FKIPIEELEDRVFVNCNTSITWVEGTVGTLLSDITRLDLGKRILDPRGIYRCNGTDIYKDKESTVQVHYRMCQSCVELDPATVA
Protocol: as §1
as §2, with “Kₒₙ” for “Kₒₙ,”

[6] = target: T5, keyhole limpet haemocyanin; assay: ELISA, KLH coated, 100 nM antibody
T5 construct: Bought reagent, coated at 5 ug/mL; also called KLH
Protocol: (§3) The experimental steps are as follows [0420] […] (4) 50 μl anti-human IgG-HRP conjugate (Sigma, AP113P, 1:8000 dilution) was added to each well; the plate was incubated for 1 h at room temperature and washed 6 times with 0.05% PBST; [0424] (5) 50 μl of TMB chromogenic solution (Biopanda, TMB-S-001) was added to each well and incubated at room temperature for 10-15 minutes for color development; [0425] (6) 50 μl of 1M HCl was added to each well to stop the color development, and the absorbance at 450 nm was measured using a microplate reader (Biotek, SYNERGY LX); Data analysis: If the ratio between the absorbance of the antibody and the absorbance of the blank control PBS is ≥3, there is too much non-specific binding.

[7] = target: T6, Insulin; assay: ELISA, insulin coated, 100 nM antibody
T6 construct: Bought reagent, coated at 5 ug/mL
Protocol: as §3

[8] = target: T7, recombinant human c-Met protein (human, UniProt P08581 25-932); assay: BLI, antibody on AHC sensor
T7 construct: Bought
T7 sequence (P08581 25-932 limits assumed): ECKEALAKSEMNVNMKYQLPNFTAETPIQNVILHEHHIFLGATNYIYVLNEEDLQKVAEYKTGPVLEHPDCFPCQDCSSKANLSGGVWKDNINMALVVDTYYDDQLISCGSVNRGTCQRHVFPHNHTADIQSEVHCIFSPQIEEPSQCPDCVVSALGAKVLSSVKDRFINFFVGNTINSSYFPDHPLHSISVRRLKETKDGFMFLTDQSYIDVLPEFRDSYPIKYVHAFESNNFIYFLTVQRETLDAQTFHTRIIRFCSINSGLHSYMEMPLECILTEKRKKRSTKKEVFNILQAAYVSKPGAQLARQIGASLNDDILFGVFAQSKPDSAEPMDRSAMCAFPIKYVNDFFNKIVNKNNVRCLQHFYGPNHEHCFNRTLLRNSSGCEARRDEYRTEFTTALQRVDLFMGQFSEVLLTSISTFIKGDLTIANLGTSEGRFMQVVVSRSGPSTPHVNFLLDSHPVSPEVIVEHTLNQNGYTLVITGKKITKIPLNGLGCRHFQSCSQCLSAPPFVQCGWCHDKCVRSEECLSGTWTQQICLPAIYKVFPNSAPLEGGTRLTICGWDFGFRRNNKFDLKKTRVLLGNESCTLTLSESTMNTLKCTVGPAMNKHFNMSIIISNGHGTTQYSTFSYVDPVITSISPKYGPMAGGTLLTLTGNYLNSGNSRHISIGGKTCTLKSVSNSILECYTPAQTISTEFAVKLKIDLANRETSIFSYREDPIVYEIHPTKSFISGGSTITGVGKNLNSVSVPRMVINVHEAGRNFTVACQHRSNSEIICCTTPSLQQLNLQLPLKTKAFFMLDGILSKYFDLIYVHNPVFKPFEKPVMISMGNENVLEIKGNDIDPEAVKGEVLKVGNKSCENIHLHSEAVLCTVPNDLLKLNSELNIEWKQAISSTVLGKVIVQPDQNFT
Protocol: as §1
as §2, with “Kₒₙ” for “Kₒₙ,”

T1 sequence (P07766 23-126, stated change not applied, chain 1 of 2): as the sequence (P07766 23-126, stated change not applied, chain 1 of 2) above
T1 sequence (P04234 22-105, stated change not applied, chain 2 of 2): as the sequence (P04234 22-105, stated change not applied, chain 2 of 2) above

B1: EGFR-BsAb bispecific control antibody (TA1-Fab CD3 x EGFR VHH) (bispecific antibody, human IgG4 S228P, kappa, F234A L235A)
heavy: EVKLLESGGGLVQPKGSLKLSCAASGFTFNTYAMNWVRQAPGKGLEWVARIRSKYNNYATYYADSVKDRFTISRDDSQSILYLQMNNLKTEDTAMYYCVRHGNFGNSYVSWFAYWGQGTLVTVSSASTKGPSVFPLAPCSRSTSESTAALGCLVKDYFPEPVTVSWNSGALTSGVHTFPAVLQSSGLYSLSSVVTVPSSSLGTKTYTCNVDHKPSNTKVDKRVESKYGPPCPPCPAPEAAGGPSVFLFPPKPKDTLMISRTPEVTCVVVDVSQEDPEVQFNWYVDGVEVHNAKTKPREEQFNSTYRVVSVLTVLHQDWLNGKEYKCKVSNKGLPSSIEKTISKAKGQPREPQVYTLPPCQEEMTKNQVSLWCLVKGFYPSDIAVEWESNGQPENNYKTTPPVLDSDGSFFLYSRLTVDKSRWQEGNVFSCSVMHEALHNHYTQKSLSLSL
chain: QVQLQESGGGSVQAGGSLKLSCAASGRGFSRYAMGWFRQAPGQDREFVATISWTNSTDYADSVKGRFAISRDNAKNTAYLQMNSLKPEDTAVYYCAADKWASSTRSIDYDYWGQGIQVTVSSESKYGPPCPPCPAPEAAGGPSVFLFPPKPKDTLMISRTPEVTCVVVDVSQEDPEVQFNWYVDGVEVHNAKTKPREEQFNSTYRVVSVLTVLHQDWLNGKEYKCKVSNKGLPSSIEKTISKAKGQPREPQVCTLPPSQEEMTKNQVSLSCAVKGFYPSDIAVEWESNGQPENNYKTTPPVLDSDGSFFLVSRLTVDKSRWQEGNVFSCSVMHEALHNRFTQKSLSLSL
light: QAVVTQESALTTSPGETVTLTCRSSTGAVTTSNYANWVQEKPDHLFTGLIGGTNKRAPGVPARFSGSLIGDKAALTITGAQTEDEAIYFCALWYSNLWVFGGGTKVEIKRTVAAPSVFIFPPSDEQLKSGTASVVCLLNNFYPREAKVQWKVDNALQSGNSQESVTEQDSKDSTYSLSSTLTLSKADYEKHKVYACEVTHQGLSSPVTKSFNRGEC
notes: also called anti-EGFR-BsAb
killing EC50, NCI-H157 cells (EGFR-positive) [1]: 0.02 nM | killing EC50, NCI-H1299 cells (EGFR-positive) [1]: 0.0318 nM | killing EC50, NCI-H1395 cells (EGFR-positive) [1]: 0.0108 nM | Kd [2]: 9.03 nM | koff [2]: 0.000748 s⁻¹ | kon [2]: 82900 M⁻¹ s⁻¹ | Kd [3]: 9.85 nM | koff [3]: 0.00305 s⁻¹ | kon [3]: 309000 M⁻¹ s⁻¹

B2: EGFR-BsAb bispecific control antibody (TA1-Fab anti-CD3 x EGFR VHH) (bispecific antibody, human IgG4 S228P, kappa, F234A L235A)
heavy: B1 heavy
chain: B1 chain
light: B1 light
notes: IgG4
Kd [4]: 0.645 nM | koff [4]: 0.000401 s⁻¹ | kon [4]: 622000 M⁻¹ s⁻¹ | Kd [5]: 5.51 nM | koff [5]: 0.00302 s⁻¹ | kon [5]: 547000 M⁻¹ s⁻¹ | absorbance ratio to PBS blank [6]: 0.5 | absorbance ratio to PBS blank [7]: 0.86

B3: c-Met-BsAb bispecific control antibody (TA1F anti-CD3 Fab x c-Met VHH) (bispecific antibody, IgG4, not shown: a dimerising Fc or GST)
heavy: EVKLLESGGGLVQPKGSLKLSCAASGFTFNTYAMNWVRQAPGKGLEWVARIRSKYNNYATYYADSVKDRFTISRDDSQSILYLQMNNLKTEDTAMYYCVRHGNFGNSYVSWFAYWGQGTLVTVSSASTKGPSVFPLAPCSRSTSESTAALGCLVKDYFPEPVTVSWNSGALTSGVHTFPAVLQSSGLYSLSSVVTVPSSSLGTKTYTCNVDHKPSNTKVDKRV
chain: QVKLEESGGDLVQPGGSLRLSCVGSGSIFSYTAMGWYRQAPGKQRELVATIHSGGNINYADSVKGRFTISRDNTENTVYLQMNSLKPEDTAVYYCWSLLVGPETRYKDFNFWGRGTQVTVSS
light: B1 light
notes: the text gives VH-CH1-Hinge-Fc (IgG4) and VL-CL (kappa)
Kd [8]: 0.523 nM | koff [8]: 0.000367 s⁻¹ | kon [8]: 702000 M⁻¹ s⁻¹
